{
  "source": "paper PMC3095670",
  "key": {"[1]": {"molecular_target": "T1, DNA polymerase beta 8-kDa domain (isolated) (rat, UniProt P06766 1-87)", "experiment": "fluorescence titration"}, "[2]": {"molecular_target": "T2, DNA polymerase beta, intact (rat, UniProt P06766 1-335)", "experiment": "fluorescence titration"}, "[3]": {"molecular_target": "T1, DNA polymerase beta 8-kDa domain …", "experiment": "FRET"}, "[4]": {"molecular_target": "T2, DNA polymerase beta, intact", "experiment": "fluorescence titration", "remark": "listed apart in the source"}},
  "note": "Like-named read-outs stand apart in the source and are kept apart here.",
  "data": [
    {"binder": "AAAAAAAAAA (ssDNA, all adenines 1,N6-etheno-A (chloroacetaldehyde))", "note": "[dεA(pεA)9]", "values": [
      {"measurement": "binding result", "setting": "[1]", "result": "binds"}
    ]},
    {"binder": "AAAAAAAAAAAAAAAAAAAA (ssDNA, all adenines 1,N6-etheno-A (chloroacetaldehyde))", "note": "[dεA(pεA)19]", "values": [
      {"measurement": "binding result", "setting": "[2]", "result": "binds"}
    ]},
    {"binder": "TTTTTTTTTTTTTTTTTTTT (ssDNA)", "note": "[5'-Fl-dT(pT)19-CP-3']", "values": [
      {"measurement": "binding result", "setting": "[3]", "result": "binds"}
    ]},
    {"binder": "AAAAAAAAAAAAAA (ssDNA, all adenines 1,N6-etheno-A (chloroacetaldehyde))", "note": "[dεA(pεA)13]", "values": [
      {"measurement": "binding result", "setting": "[4]", "result": "binds"}
    ]}
  ]
}
